T1: EsCas13d, nuclease-dead (Eubacterium siraeum, UniProt B0MS50, R295A;H300A;R849A;H854A)
T1 sequence: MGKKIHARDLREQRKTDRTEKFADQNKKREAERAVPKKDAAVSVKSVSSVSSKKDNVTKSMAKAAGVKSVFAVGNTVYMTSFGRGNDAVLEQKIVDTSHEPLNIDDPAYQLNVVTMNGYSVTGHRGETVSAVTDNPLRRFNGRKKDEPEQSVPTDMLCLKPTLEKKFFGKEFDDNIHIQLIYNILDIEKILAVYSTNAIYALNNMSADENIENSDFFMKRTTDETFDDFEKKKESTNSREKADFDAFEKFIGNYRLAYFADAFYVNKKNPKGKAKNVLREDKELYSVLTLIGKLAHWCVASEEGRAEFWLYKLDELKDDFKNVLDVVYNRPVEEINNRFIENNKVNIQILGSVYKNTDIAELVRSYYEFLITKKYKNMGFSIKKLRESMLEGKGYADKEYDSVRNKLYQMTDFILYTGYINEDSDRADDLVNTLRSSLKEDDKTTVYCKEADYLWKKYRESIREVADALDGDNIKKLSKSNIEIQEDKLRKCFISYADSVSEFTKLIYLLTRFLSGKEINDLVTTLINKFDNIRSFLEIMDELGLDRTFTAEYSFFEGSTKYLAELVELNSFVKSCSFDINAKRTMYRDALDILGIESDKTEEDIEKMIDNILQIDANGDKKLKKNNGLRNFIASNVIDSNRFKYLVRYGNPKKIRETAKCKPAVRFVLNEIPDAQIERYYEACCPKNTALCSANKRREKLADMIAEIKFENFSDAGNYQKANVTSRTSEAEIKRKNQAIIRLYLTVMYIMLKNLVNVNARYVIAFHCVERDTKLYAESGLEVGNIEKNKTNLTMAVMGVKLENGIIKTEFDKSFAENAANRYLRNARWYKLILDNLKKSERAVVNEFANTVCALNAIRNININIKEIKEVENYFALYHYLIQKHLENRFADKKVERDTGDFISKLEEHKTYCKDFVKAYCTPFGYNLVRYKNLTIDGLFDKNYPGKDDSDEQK

B1: target 1 MT 5'PFS GCG 3'PFS CGC (mixed)
RNA 1: CACCCGUGCAAAAAUGCAGGGGUCUAAAACUGAGCGGAUAACCUCUCUAUGG
RNA 2: GGGAAUGGAUCCACAUCUACGAAUUCGCGCCAUAGAGAGGUUAUCCGCUCACGCAGAUCGGAAGAGCACACGU
B2: target 1 MT 5'PFS GUG 3'PFS UAC (mixed)
RNA 1: CACCCGUGCAAAAAUGCAGGGGUCUAAAACUGAGCGGAUAACCUCUCUAUGG
RNA 2: GGGAAUGGAUCCACAUCUACGAAUUCGUGCCAUAGAGAGGUUAUCCGCUCAUACAGAUCGGAAGAGCACACGU
B3: target 1 MT 5'PFS CAG 3'PFS UCU (mixed)
RNA 1: CACCCGUGCAAAAAUGCAGGGGUCUAAAACUGAGCGGAUAACCUCUCUAUGG
RNA 2: GGGAAUGGAUCCACAUCUACGAAUUCCAGCCAUAGAGAGGUUAUCCGCUCAUCUAGAUCGGAAGAGCACACGU
B4: target 1 MT 5'PFS GUG 3'PFS UAG (mixed)
RNA 1: CACCCGUGCAAAAAUGCAGGGGUCUAAAACUGAGCGGAUAACCUCUCUAUGG
RNA 2: GGGAAUGGAUCCACAUCUACGAAUUCGUGCCAUAGAGAGGUUAUCCGCUCAUAGAGAUCGGAAGAGCACACGU
B5: target 1 MT 5'PFS GAG 3'PFS CUG (mixed)
RNA 1: CACCCGUGCAAAAAUGCAGGGGUCUAAAACUGAGCGGAUAACCUCUCUAUGG
RNA 2: GGGAAUGGAUCCACAUCUACGAAUUCGAGCCAUAGAGAGGUUAUCCGCUCACUGAGAUCGGAAGAGCACACGU
B6: target 1 MT 5'PFS GCA 3'PFS CGA (mixed)
RNA 1: CACCCGUGCAAAAAUGCAGGGGUCUAAAACUGAGCGGAUAACCUCUCUAUGG
RNA 2: GGGAAUGGAUCCACAUCUACGAAUUCGCACCAUAGAGAGGUUAUCCGCUCACGAAGAUCGGAAGAGCACACGU
B7: target 1 MT 5'PFS GCG 3'PFS CGA (mixed)
RNA 1: CACCCGUGCAAAAAUGCAGGGGUCUAAAACUGAGCGGAUAACCUCUCUAUGG
RNA 2: GGGAAUGGAUCCACAUCUACGAAUUCGCGCCAUAGAGAGGUUAUCCGCUCACGAAGAUCGGAAGAGCACACGU
B8: target 1 MT 5'PFS GCA 3'PFS CGG (mixed)
RNA 1: CACCCGUGCAAAAAUGCAGGGGUCUAAAACUGAGCGGAUAACCUCUCUAUGG
RNA 2: GGGAAUGGAUCCACAUCUACGAAUUCGCACCAUAGAGAGGUUAUCCGCUCACGGAGAUCGGAAGAGCACACGU
B9: target 1 MT 5'PFS UAG 3'PFS CUU (mixed)
RNA 1: CACCCGUGCAAAAAUGCAGGGGUCUAAAACUGAGCGGAUAACCUCUCUAUGG
RNA 2: GGGAAUGGAUCCACAUCUACGAAUUCUAGCCAUAGAGAGGUUAUCCGCUCACUUAGAUCGGAAGAGCACACGU
B10: target 1 C2G,G5C (mixed)
RNA 1: CACCCGUGCAAAAAUGCAGGGGUCUAAAACUGAGCGGAUAACCUCUCUAUGG
RNA 2: GGGAAUGGAUCCACAUCUACGAAUUCGUACCAUAGAGAGGUUAUCCCCUGACCGAGAUCGGAAGAGCACACGU
B11: target 1 MT 5'PFS CAG 3'PFS AAC (mixed)
RNA 1: CACCCGUGCAAAAAUGCAGGGGUCUAAAACUGAGCGGAUAACCUCUCUAUGG
RNA 2: GGGAAUGGAUCCACAUCUACGAAUUCCAGCCAUAGAGAGGUUAUCCGCUCAAACAGAUCGGAAGAGCACACGU
B12: target 1 MT 5'PFS CCC 3'PFS AGC (mixed)
RNA 1: CACCCGUGCAAAAAUGCAGGGGUCUAAAACUGAGCGGAUAACCUCUCUAUGG
RNA 2: GGGAAUGGAUCCACAUCUACGAAUUCCCCCCAUAGAGAGGUUAUCCGCUCAAGCAGAUCGGAAGAGCACACGU
B13: target 1 MT 5'PFS AAA 3'PFS AUG (mixed)
RNA 1: CACCCGUGCAAAAAUGCAGGGGUCUAAAACUGAGCGGAUAACCUCUCUAUGG
RNA 2: GGGAAUGGAUCCACAUCUACGAAUUCAAACCAUAGAGAGGUUAUCCGCUCAAUGAGAUCGGAAGAGCACACGU
B14: target 1 MT 5'PFS GGC 3'PFS ACC (mixed)
RNA 1: CACCCGUGCAAAAAUGCAGGGGUCUAAAACUGAGCGGAUAACCUCUCUAUGG
RNA 2: GGGAAUGGAUCCACAUCUACGAAUUCGGCCCAUAGAGAGGUUAUCCGCUCAACCAGAUCGGAAGAGCACACGU
B15: target 1 MT 5'PFS CAG 3'PFS UCG (mixed)
RNA 1: CACCCGUGCAAAAAUGCAGGGGUCUAAAACUGAGCGGAUAACCUCUCUAUGG
RNA 2: GGGAAUGGAUCCACAUCUACGAAUUCCAGCCAUAGAGAGGUUAUCCGCUCAUCGAGAUCGGAAGAGCACACGU
B16: target 1 MT 5'PFS GAG 3'PFS CUA (mixed)
RNA 1: CACCCGUGCAAAAAUGCAGGGGUCUAAAACUGAGCGGAUAACCUCUCUAUGG
RNA 2: GGGAAUGGAUCCACAUCUACGAAUUCGAGCCAUAGAGAGGUUAUCCGCUCACUAAGAUCGGAAGAGCACACGU
B17: target 1 insG 3' of 14 (mixed)
RNA 1: CACCCGUGCAAAAAUGCAGGGGUCUAAAACUGAGCGGAUAACCUCUCUAUGG
RNA 2: GGGAAUGGAUCCACAUCUACGAAUUCGUACCAUAGAGAGGGUUAUCCGCUCACCGAGAUCGGAAGAGCACACGU
B18: target 1 C4G,A20U (mixed)
RNA 1: CACCCGUGCAAAAAUGCAGGGGUCUAAAACUGAGCGGAUAACCUCUCUAUGG
RNA 2: GGGAAUGGAUCCACAUCUACGAAUUCGUACCUUAGAGAGGUUAUCCGGUCACCGAGAUCGGAAGAGCACACGU
B19: target 1 MT 5'PFS GCG 3'PFS CGU (mixed)
RNA 1: CACCCGUGCAAAAAUGCAGGGGUCUAAAACUGAGCGGAUAACCUCUCUAUGG
RNA 2: GGGAAUGGAUCCACAUCUACGAAUUCGCGCCAUAGAGAGGUUAUCCGCUCACGUAGAUCGGAAGAGCACACGU
B20: target 1 MT 5'PFS GAG 3'PFS UUG (mixed)
RNA 1: CACCCGUGCAAAAAUGCAGGGGUCUAAAACUGAGCGGAUAACCUCUCUAUGG
RNA 2: GGGAAUGGAUCCACAUCUACGAAUUCGAGCCAUAGAGAGGUUAUCCGCUCAUUGAGAUCGGAAGAGCACACGU
B21: target 1 C4U,A9G (mixed)
RNA 1: CACCCGUGCAAAAAUGCAGGGGUCUAAAACUGAGCGGAUAACCUCUCUAUGG
RNA 2: GGGAAUGGAUCCACAUCUACGAAUUCGUACCAUAGAGAGGUUGUCCGUUCACCGAGAUCGGAAGAGCACACGU
B22: target 1 MT 5'PFS GUG 3'PFS UAU (mixed)
RNA 1: CACCCGUGCAAAAAUGCAGGGGUCUAAAACUGAGCGGAUAACCUCUCUAUGG
RNA 2: GGGAAUGGAUCCACAUCUACGAAUUCGUGCCAUAGAGAGGUUAUCCGCUCAUAUAGAUCGGAAGAGCACACGU
B23: target 1 MT 5'PFS GUG 3'PFS UAA (mixed)
RNA 1: CACCCGUGCAAAAAUGCAGGGGUCUAAAACUGAGCGGAUAACCUCUCUAUGG
RNA 2: GGGAAUGGAUCCACAUCUACGAAUUCGUGCCAUAGAGAGGUUAUCCGCUCAUAAAGAUCGGAAGAGCACACGU
B24: target 1 MT 5'PFS CAG 3'PFS AUA (mixed)
RNA 1: CACCCGUGCAAAAAUGCAGGGGUCUAAAACUGAGCGGAUAACCUCUCUAUGG
RNA 2: GGGAAUGGAUCCACAUCUACGAAUUCCAGCCAUAGAGAGGUUAUCCGCUCAAUAAGAUCGGAAGAGCACACGU
B25: target 1 MT 5'PFS GAG 3'PFS UUU (mixed)
RNA 1: CACCCGUGCAAAAAUGCAGGGGUCUAAAACUGAGCGGAUAACCUCUCUAUGG
RNA 2: GGGAAUGGAUCCACAUCUACGAAUUCGAGCCAUAGAGAGGUUAUCCGCUCAUUUAGAUCGGAAGAGCACACGU
B26: target 1 MT 5'PFS CAG 3'PFS UCC (mixed)
RNA 1: CACCCGUGCAAAAAUGCAGGGGUCUAAAACUGAGCGGAUAACCUCUCUAUGG
RNA 2: GGGAAUGGAUCCACAUCUACGAAUUCCAGCCAUAGAGAGGUUAUCCGCUCAUCCAGAUCGGAAGAGCACACGU
B27: target 1 MT 5'PFS CAG 3'PFS AUC (mixed)
RNA 1: CACCCGUGCAAAAAUGCAGGGGUCUAAAACUGAGCGGAUAACCUCUCUAUGG
RNA 2: GGGAAUGGAUCCACAUCUACGAAUUCCAGCCAUAGAGAGGUUAUCCGCUCAAUCAGAUCGGAAGAGCACACGU
B28: target 1 MT 5'PFS AAA 3'PFS AUU (mixed)
RNA 1: CACCCGUGCAAAAAUGCAGGGGUCUAAAACUGAGCGGAUAACCUCUCUAUGG
RNA 2: GGGAAUGGAUCCACAUCUACGAAUUCAAACCAUAGAGAGGUUAUCCGCUCAAUUAGAUCGGAAGAGCACACGU

These binders were tested against T1, EsCas13d, nuclease-dead (assay: crRNA (strand 1, pre-loaded); Mg2+; 40 mM Tris-HCl pH 7.5, 150 mM NaCl, 6 mM MgCl2, 1 mM DTT, 0.1% Tween-20, 0.2 mg/ml BSA; 25 C; 10 min per concentration, then washed). Details: tags: His6-TwinStrep-SUMO cleaved; N-terminal SNAP kept (SNAP-Surface 488); label: 3' end held by stalled T7 RNA polymerase.
For B1, the Kd was ~80 nM.
Work on B2 yielded a Kd of 19.9 ± 2.05 nM.
With B3 the Kd was 19 ± 7 nM.
B4 showed a Kd of 16 ± 1.5 nM.
For B5, the Kd was ~23.5 nM.
With B6 the Kd was 41 ± 11 nM.
In the case of B7, the Kd is reported as 49.5 ± 17 nM.
Binder B8 has a Kd of 25 ± 6.5 nM.
B9 was tested, and the Kd was 28 ± 5.5 nM.
Work on B10 yielded a Kd of 14 ± 1.1 nM.
For B11, the Kd was 75 ± 36.5 nM.
Binder B12 has a Kd of ~40 nM.
In the case of B13, the Kd is reported as 28.5 ± 8 nM.
B14 gave a Kd of 24.3 ± 5.25 nM.
For B15, the Kd was 9 ± 1.75 nM.
B16 showed a Kd of 40 ± 15 nM.
Work on B17 yielded a Kd of 9.4 ± 0.33 nM.
Work on B18 yielded a Kd of 17.5 ± 2 nM.
Work on B19 yielded a Kd of ~70 nM.
Work on B20 yielded a Kd of 9.9 ± 1.85 nM.
B21 showed a Kd of 42 ± 8 nM.
For B22, the Kd was 11.3 ± 0.8 nM.
In the case of B23, the Kd is reported as 14.8 ± 0.95 nM.
In the case of B24, the Kd is reported as 29 ± 13.5 nM.
In the case of B25, the Kd is reported as 23 ± 5.5 nM.
B26 showed a Kd of 11.9 ± 5.25 nM.
With B27 the Kd was ~17.5 nM.
Work on B28 yielded a Kd of 28 ± 9.5 nM.
